Assays:
[1] = molecular target: human complement factor H (UniProt P08603)
[2] = tested on: adrenomedullin (synthetic human AM)

Sequence of human complement factor H (P08603 19-1231): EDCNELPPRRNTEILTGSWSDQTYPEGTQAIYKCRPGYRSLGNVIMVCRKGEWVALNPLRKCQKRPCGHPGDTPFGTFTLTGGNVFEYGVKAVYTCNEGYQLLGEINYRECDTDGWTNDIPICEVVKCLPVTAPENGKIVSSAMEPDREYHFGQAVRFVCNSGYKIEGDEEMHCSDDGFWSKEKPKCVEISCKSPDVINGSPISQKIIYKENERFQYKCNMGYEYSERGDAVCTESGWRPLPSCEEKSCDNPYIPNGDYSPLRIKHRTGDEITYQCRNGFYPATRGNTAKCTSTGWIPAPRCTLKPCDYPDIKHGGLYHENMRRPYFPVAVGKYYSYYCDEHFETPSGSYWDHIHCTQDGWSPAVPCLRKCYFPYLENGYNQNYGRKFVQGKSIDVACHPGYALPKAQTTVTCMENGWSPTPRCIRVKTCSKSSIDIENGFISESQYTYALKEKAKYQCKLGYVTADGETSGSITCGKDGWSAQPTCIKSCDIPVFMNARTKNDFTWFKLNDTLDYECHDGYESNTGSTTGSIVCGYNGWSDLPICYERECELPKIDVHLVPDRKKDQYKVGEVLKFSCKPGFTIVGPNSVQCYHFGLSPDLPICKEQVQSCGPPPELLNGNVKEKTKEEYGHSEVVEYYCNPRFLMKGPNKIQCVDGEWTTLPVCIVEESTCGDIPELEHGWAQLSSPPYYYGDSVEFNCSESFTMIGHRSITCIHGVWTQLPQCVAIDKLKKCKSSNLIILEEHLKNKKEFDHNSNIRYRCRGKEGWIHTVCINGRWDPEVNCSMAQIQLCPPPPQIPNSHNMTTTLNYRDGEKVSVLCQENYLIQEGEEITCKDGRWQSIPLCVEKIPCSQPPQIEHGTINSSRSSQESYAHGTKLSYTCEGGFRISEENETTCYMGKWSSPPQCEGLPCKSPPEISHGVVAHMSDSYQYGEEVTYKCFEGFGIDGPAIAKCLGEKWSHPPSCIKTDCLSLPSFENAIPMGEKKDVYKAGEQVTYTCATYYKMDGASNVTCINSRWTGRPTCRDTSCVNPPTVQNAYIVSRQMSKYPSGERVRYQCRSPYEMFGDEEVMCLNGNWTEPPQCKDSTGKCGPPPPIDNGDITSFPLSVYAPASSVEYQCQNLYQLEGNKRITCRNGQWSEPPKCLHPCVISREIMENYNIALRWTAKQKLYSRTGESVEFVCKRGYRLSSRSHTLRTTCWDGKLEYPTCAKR

human recombinant MMP-9
degradation of factor H (gel) [1]: is not a substrate for either one of the MMPs
degradation of synthetic AM (gel) [2]: The resistance of AM to degradation by MMP-9
